Measurements reported in PMC10147376.

Target: Flotillin A (FloA) tagged with hexa-histidine (floA-6xHis) (S. aureus Newman)
Assay: pull-down; Ni-NTA (IMAC) affinity chromatography of S. aureus Newman membranes solubilised in 50 mM Tris HCl pH 8, 250 mM NaCl, 1% DDM, 4°C; FloA-His held, IsdF-3xFLAG in the 50 mM imidazole eluate detected by anti-FLAG blot; control strain with untagged FloA WT set to 1; called co-immunoprecipitation by the paper

Sequence of Flotillin A (FloA) tagged with hexa-histidine (floA-6xHis) (S. aureus Newman) (A6QHB6 whole entry): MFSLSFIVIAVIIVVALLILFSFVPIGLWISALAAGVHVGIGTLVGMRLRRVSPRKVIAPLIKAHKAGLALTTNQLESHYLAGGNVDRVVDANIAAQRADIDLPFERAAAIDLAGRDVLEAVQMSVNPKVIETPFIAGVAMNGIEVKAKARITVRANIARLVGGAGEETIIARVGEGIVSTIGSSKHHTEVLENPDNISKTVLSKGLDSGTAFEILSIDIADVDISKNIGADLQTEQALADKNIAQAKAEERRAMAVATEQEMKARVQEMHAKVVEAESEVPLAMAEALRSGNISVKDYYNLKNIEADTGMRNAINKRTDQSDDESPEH

## IsdF with a triple FLAG tag (pRB474:isdF-3xFLAG) (from UniProt Q2FHU7 1-322) (natural protein)
  fold IsdF-3xFLAG signal in the Ni-NTA eluate against the strain with untagged FloA WT (set to 1): 3 fold
